Values quoted from earlier work as cited in PMC4319847 (PLoS ONE, 2015).

Test system: Yeast importin-α
Details: in the crystal (1BK6) and in solution by DLS; ref [13]
Text: The open homodimerization probably attributes to H119 at the top of the loop; this loop corresponds to the K ...

B1: Yeast importin-α: Yeast importin-α (1BK6), first crystal structure of an importin-α shown to dimerize (protein, UniProt Q02821 1-542, looked up)
Importin subunit alpha: MDNGTDSSTSKFVPEYRRTNFKNKGRFSADELRRRRDTQQVELRKAKRDEALAKRRNFIPPTDGADSDEEDESSVSADQQFYSQLQQELPQMTQQLNSDDMQEQLSATVKFRQILSREHRPPIDVVIQAGVVPRLVEFMRENQPEMLQLEAAWALTNIASGTSAQTKVVVDADAVPLFIQLLYTGSVEVKEQAIWALGNVAGDSTDYRDYVLQCNAMEPILGLFNSNKPSLIRTATWTLSNLCRGKKPQPDWSVVSQALPTLAKLIYSMDTETLVDACWAISYLSDGPQEAIQAVIDVRIPKRLVELLSHESTLVQTPALRAVGNIVTGNDLQTQVVINAGVLPALRLLLSSPKENIKKEACWTISNITAGNTEQIQAVIDANLIPPLVKLLEVAEYKTKKEACWAISNASSGGLQRPDIIRYLVSQGCIKPLCDLLEIADNRIIEVTLDALENILKMGEADKEARGLNINENADFIEKAGGMEKIFNCQQNENDKIYEKAYKIIETYFGEEEDAVDETMAPQNAGNTFGFGSNVNQQFNFN
  dimerization: dimerize not only in the crystal but also in solution
